{"source": "the DeepSol protein solubility set", "data": [{"assay": "soluble on expression in E. coli; label from the status in PepcDB or PDB records", "values": [{"sequence": "MLAKSIPLGIYEKALPAGECWLERLKLAKALGFDFVEMSLDETDARLARLDWSPEQRLALVKAVAETGVRVPSMCLSAHRRFPLGSEDDAVRHQGLEIMRKAIQLAQDVGIRVIQLAGYDVYYQQANDETRRRFRDGLKQSVEMASRAQVTLAMEIMDYPLMNSISKALGYAHYLNNPWFQLYPDIGNLSAWDNDVQMELKAGSGHIVAVHVKDTKPGVFKNVPFGEGVVDFERCFETLKQTGYCGPYLIEMWSETSADPLAEVAKARDWVKARMARAGLMEAA", "soluble on expression in E. coli": "not soluble"}, {"sequence": "MLARGKTNLKIEEIRMHKHHEIHRVKPLMPALCRIRQGKKVINWETHTLTVDNNQIILFPCGYEFYIENYPEAGLYLAEMLYLPIDLIESFQKLYTVTDQIRNKTSFFLPQNPELIYCWEQLKTSVSRGFSTKIQEHLAMGVLLSLGVNHVNHLLLSYSKQSLISRCYNLLLSEPGTKWTANKVARYLYISVSTLHRRLASEGVSFQSILDDVRLNNALSAIQTTVKPISEIARENGYKCPSRFTERFHNRFNITPREIRKASRE", "soluble on expression in E. coli": "soluble"}, {"sequence": "MLARLVLGTSGRAALGSVEPALGGLKSIWRCSQAFCSTPKGVTYRELKSLLNSKDIMLIDVRNTLEILEQGKIPGSINIPLDEVGEALQMNPVDFKEKYCQVKPSKSDRLVFSCLAGVRSKKAMDTAISLGFNSAQHYAGGWKEWVTYEISEEKQES", "soluble on expression in E. coli": "soluble"}, {"sequence": "MLDLQGLEEIANVQMQLENIISKLNIPIIQKGVFDNEGYLKSIMRGMRDYICFKTSKKKYKTIKAQNVIIHPGSLISTDSVKYFVAGEIIETTKMYARSIGVLKKEWIDDIILNEEFKHNDISSKELEHHHHHH", "soluble on expression in E. coli": "not soluble"}, {"sequence": "MLDLRFQRLHGKTTLTTRHHVGLLTVQRPFYPEEETCHLCLLHPPGGIVGGDELIINAIIDSDCHTLITMPGASKFYRSSGAQAHLQQNLTLCNNATLEWLPQDSIFFPGAHATLHTVFHLSSSSTLLAWDLLCLGRPVIGETFSHGTLANRLEIWVDGSPLLIERLHVANGELTCVARKPWVGTMLFYLGNETQLEDIREKLTPLENYAGATLTDGLLTVRFLSDDNLRCQ", "soluble on expression in E. coli": "not soluble"}, {"sequence": "MLEAKNLTCIRDDRCLFQQLSFCIAPGEIVQIEGPNGAGKTSLLRILAGLAEADEGQVNWRDKNIRRDRAKYHQDLLFLGHQPGIKSVLTPFENLLFYQSVFQKVDSAAIWQALAQVGLVGYEDLPVSQLSAGQQRRVALARLWLSPAPLWILDEPLTAIDKQGVSTLLALFVQHAAKGGMVLLTTHQDLGAVSHNVRKICLANTQEKSCLSACCAVN", "soluble on expression in E. coli": "not soluble"}, {"sequence": "MLEELGKVVEFKGKGVELHLDGQGEPFLYPYMEYFLEKASRMKGVEVVSIQSNGTLLTEEKISAIEDYVTRINLSLSSLDEKTAKTLHGAYSVKKVKEVAEMIASSKMDLLIAPVWVPGYNDREIPKIIEFALEIGAGKKYPPLGIQKYIPYRYGRKAGKSMPFKEFYRRLEEYEKEYGVKLVLGPEDFGMEKRPK", "soluble on expression in E. coli": "not soluble"}, {"sequence": "MLEKYGRCRKRRLLKEVVLILLVAAVQPVLSSSKSTPEAQLTDVELTCPDDWIRHGTKCYLPFNIHQSWPFAMTTCQRYGSTLAKIQTGSENQFIASLLSKPGKPTEGKEYWIGLTVEVLDDDELYLWSDGTPTSRYVGFWRQDQPNFLNGSCALGKVERKDLEWRLDTCNLLRRFVCERPACVQGSYFCSSGSCISESKKCNGHNDCDDGSDEQNCPSAFQPNCRTYEKGESGQLSSTNYPNSYDPNLNCRHVLEGPINSRIELTIEHFETEPDFDILTVLDGGPAENSTTVIKRLSGSMETVQTITSATNMMIVQFRTDAQSNARGWQLKWRAVPFTCGGHFTAQAYIQSFVSPGYPKTFANGAECVWTVESTPGQVVSLIMKSGKTWG", "soluble on expression in E. coli": "not soluble"}, {"sequence": "MLEVDVVRISVIVPIYNVKLYIERCVRSLMEQTLENIEFIFVNDCTPDDSMDILHYVLEEYPKRREQIKIIEHETNRGISAVRNTGLKNATGQYIIYCDSDDWVEKNMYEKLLVKALETSADIVGCDFFDDYVAHSTIRKQLFPQQSEKCVKKMLRGELHCGTWNKLVIKSLYERTKIDFPEGINMWEDVSTIIPLCFHATKIDYIPEALYHYIHHNVSSYTYSVTEKSLENLVASIQLLESFFLTNQCFKTFGEDLCFMKLTVKLNLLLGSKGELQKKRNMLYSSANRYIFSYSGMSWYWKIALWVASKKMLFCFNVMSCIERIIKKWKLEHHHHHH", "soluble on expression in E. coli": "not soluble"}, {"sequence": "MLFDSLPRPSERIAPGVAHLPGWLGVDKQAELVREIREIARTYADTPMAMLRPTLKSGGQMSVYQLHLGRYWHYPSYRYIDKIAGTTVPPVPDSLAALAPEALRAAAEVAEELAPWVETFVPEMVLVNYYPPGSRMGMHVDEFEESRAPVISVSIGDEALFRMGHTESRTQPWDDVTLCSGDLVVFGGPKRFAYHGVVRVNDATLPDGCGLEQGRINITIRQVSAAPNVQGR", "soluble on expression in E. coli": "not soluble"}, {"sequence": "MLFNFREKLNSRKFLVTAEVSPPKGTRFSASLEDASQLKGIADALNVTDNQCSIMHMSSLAFSKLLLDEGHEPIMQLTCRDRNRIGLQSDLLGAYALGIRNICLMTGDYPTCGDHPGSKPVYDVDSVQLIELVRKLDTGVDFAGNKLDGGTSFCAGAVSGIDPEKTMQLIKLQKKVKCGADFIQTQAVYDIGMFEEFMDAVNYLEVPVIAGLIPLKSLGMAEFMNKNISGIHVPEEIMLRMKDASSPMEEGLLIASETIKELTKLSRGIHVMPIGSHRNTARLLSLAGISQ", "soluble on expression in E. coli": "not soluble"}, {"sequence": "MLFTISENVKEAAQYFVEYKIQSVSDLKEFARVMKEYERKGDSFIHELVVQLNKTFITPIEREDIHQLAMKMDDVLDGFEQCSARFEMFSFTEIDEHMAKFFDYIYQSTIEIVHALELLANKKLLDMRQHAIKIKDYETKCDEILRASIKNLFVTQKDPIKIIQYKELYEMLEEIADSCEDVANTLETIIMRNA", "soluble on expression in E. coli": "not soluble"}, {"sequence": "MLGAMSLRLSEFRETNLLDKILFGVLSPHEIRQLAKVTVVRGDLYEADGTPVSGGLRDPHFGAIEPGERCPVCGNSREECPGHFGKIELARPVLIPHYTDYVYKILQATCRVCGRITLPEEKIKYYRLIFRRLRGKWPQLAKTFATMVVKEAAQATQCPHCGKPQYKVVYIRPFHFYEKKPEGDVKLTPSEIRERLEKTGSEIEILGVHPERSRPEWMVATVLIVPPLAVRPSITLETGLRSEDDLTHALAEIVRQNEKLRNVIVTNAPETLIEENWMVLQEMVAAYIDNELPGARRLTHRRKRYLKTLAQRLKGKDGRIRGNLSGKRVNYSARTVISPDPYISINEVGVPEEIAKTLTIAMRVTPYNLEEARRYVLNGPDKWPGALFVYKASERKKYDLRFFKDYEKLAESLEPGDVVERHLINGDIVLFNRQPSLHRMSIMGHIVRVMPGKTFRLNLLVCPPYNADFDGDEMNLHVPRLEEAQAEAREIMLVEKHILTPRYGGPIIGGRQDYVSGAYLLTVKTRLFTKEEVERLLSVAGYKGDLPEPAILKPEPLWTGKQLASIFLPEDLSFKGKSKTNAGDLACSDELCLHDSYIVITNGKLLEGVLDKKAIGAEEPNNLLHIIALEYGNSKARQLLDSFYRMFIRMLELRGLTISLHDIDLPDRAKQEIEELIREYKGRVYSIIEEYRKGTLEPIPGRSLEESLEIKIMEVLDELRKRVQEVASNNLDPFNDVFVMARTGARGSDVNISQMAAMLGQQAVRGRRIRRGLRNRVLAHFKENDIEPEAWGFVRSSFRKGLRPTEVFFHAAAGREGLVDTAVKTSQSGYMQRRLINALQDIVVTYDGTVRDLYGNLIQLKYGEDGVDPMKTYHGKPVDVKRIIQRVKASKAETV", "soluble on expression in E. coli": "soluble"}, {"sequence": "MLIAITGTPGVGKTTVAKLLAKKLNYEYVSLKDFALEKGCGRRVNDEVEVEIDELAYFIERELKGKNAVLDGHLSHLMPVDLVVVLRAHPKLIGERLRERGYDREKIGENVEAELVDAVLIEAIEEHENVIEVDTTNKSPEDVVEEIVSLINSGIKKRVGIVDWSEVYDEIIPYLRLGGELEHHHHHH", "soluble on expression in E. coli": "soluble"}, {"sequence": "MLINVNFNELLLELDSLSVYRNLLNDSVIKKLYELGDLIYKKEPGTDEFIKKYNEFFFELTSGSIQSLKEHIIELILFDENPYSRQSEKLPFENIDKVLIDAASKDLDRLHVISALTSRKFKDYALENICKSESEKRFIDSLPAWEFDGRSNQGKRKLSQNCQKMIDVLVSSNKWGECVKNLSDFYFTNGSGIFARYHAFVWEPSEKPSLRGVEFPDPIRLSDFIGYEQQRLEVIENTEKFVRGLPANNVLLYGDRGTGKSSTVKAIANEYREQGLRIIEIPRKYLVDFPAVLKLIKGRSCKFIIFIDDLAFEDSEESYTVLKSVLEGGVENRPDNVLIYATSNRRHLIKEKFSDRAGFKSDDPDDEIRAQDTMQEKLSLSERFGITVVFSSPDKKQFLQIVEGLVAKRGINIDKDTLQREAMKWELMYNGRSARTARQFVDWLEGSMKLKK", "soluble on expression in E. coli": "soluble"}]}]}
